Patent publication US20110021548A1, “INHIBITORS OF MALT1 PROTEOLYTIC ACTIVITY AND USES THEREOF” (priority 2007, published 2011)
Entries after “also recorded” stand apart in the source; their conditions may differ. code Z = not defined here

T1: MALT1 (Homo sapiens, UniProt Q9UDY8)
T1 construct: made in house
T1 sequence (Q9UDY8 2-824): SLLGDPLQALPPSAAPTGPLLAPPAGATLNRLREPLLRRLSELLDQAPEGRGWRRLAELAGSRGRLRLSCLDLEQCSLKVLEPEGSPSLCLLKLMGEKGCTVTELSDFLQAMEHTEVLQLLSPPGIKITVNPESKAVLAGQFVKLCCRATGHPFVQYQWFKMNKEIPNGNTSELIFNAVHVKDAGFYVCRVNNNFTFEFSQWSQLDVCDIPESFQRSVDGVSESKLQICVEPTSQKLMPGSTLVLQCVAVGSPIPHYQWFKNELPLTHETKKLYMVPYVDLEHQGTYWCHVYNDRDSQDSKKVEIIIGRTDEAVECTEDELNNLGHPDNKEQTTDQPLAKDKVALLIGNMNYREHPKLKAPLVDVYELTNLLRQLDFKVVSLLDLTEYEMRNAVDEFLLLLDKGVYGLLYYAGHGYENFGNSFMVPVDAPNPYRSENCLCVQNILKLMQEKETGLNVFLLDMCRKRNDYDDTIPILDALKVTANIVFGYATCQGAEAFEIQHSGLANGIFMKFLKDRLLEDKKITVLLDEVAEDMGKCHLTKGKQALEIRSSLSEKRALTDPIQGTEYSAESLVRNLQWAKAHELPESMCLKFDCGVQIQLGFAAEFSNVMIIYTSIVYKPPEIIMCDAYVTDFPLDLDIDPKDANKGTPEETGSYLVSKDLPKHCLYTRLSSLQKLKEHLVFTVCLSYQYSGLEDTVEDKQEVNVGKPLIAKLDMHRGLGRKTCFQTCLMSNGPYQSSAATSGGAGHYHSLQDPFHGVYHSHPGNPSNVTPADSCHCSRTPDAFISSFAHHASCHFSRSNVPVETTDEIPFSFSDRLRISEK

T2: MALT1 (Homo sapiens, UniProt Q9UDY8)
T2 construct: made in house
T2 sequence (Q9UDY8 334-824): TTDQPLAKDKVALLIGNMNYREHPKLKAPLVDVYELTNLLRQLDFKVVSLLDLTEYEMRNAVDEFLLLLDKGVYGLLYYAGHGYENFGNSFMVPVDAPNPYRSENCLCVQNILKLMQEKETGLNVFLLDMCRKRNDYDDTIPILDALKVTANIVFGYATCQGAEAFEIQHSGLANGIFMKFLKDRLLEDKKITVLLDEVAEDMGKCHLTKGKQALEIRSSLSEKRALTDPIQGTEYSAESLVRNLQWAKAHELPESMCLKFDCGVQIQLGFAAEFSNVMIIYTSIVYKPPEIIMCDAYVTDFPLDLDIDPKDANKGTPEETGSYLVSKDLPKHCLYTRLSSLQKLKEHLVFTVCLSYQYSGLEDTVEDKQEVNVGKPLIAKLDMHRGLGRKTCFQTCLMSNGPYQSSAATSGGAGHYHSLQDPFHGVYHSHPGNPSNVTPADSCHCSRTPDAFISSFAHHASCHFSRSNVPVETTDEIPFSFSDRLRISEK


What was measured:
Assay in all cases: MALT1 paracaspase assay (Ac-LSSR-AMC cleavage, AMC release)
[1] = tested on: MALT1; assay type: biochemical, human; conditions: for Inhibition of the MALT1 paracaspase activity by A. thaliana serpin: FIG. 11, several serpin concentrations
[2] = biological target: T1, MALT1; assay type: biochemical; conditions: bio-IP purified MALT1 from HEK-293T cells; substrate 100 μM; inhibitor 100 μM (equimolar)
[3] = biological target: T2, MALT1; assay type: biochemical; conditions: recombinant MALT1 p20 fragment; substrate 100 μM; inhibitor 100 μM

| Molecule | Inhibition of the malt paracaspase activity in small compound screening ([1]; FIG. 12, different concentrations) | Inhibition of Ac-LSSR-AMC cleavage by bio-IP purified MALT1 [2] | Inhibition of Ac-LSSR-AMC cleavage by recombinant MALT1 [3] | Inhibition of the MALT1 paracaspase activity by A. thaliana serpin [1] |
| --- | --- | --- | --- | --- |
| Cc1ccc(-c2ccc(C=C3C(=O)NC(=S)NC3=O)o2)cc1Cl [Inh03, 5-{[5-(3-chloro-4-methylphenyl)-2-furyl]methylene}-2-thioxodihydro-4,6(1H,5H)-pyrimidinedione] | Inhibitory effect | – | – | – |
| Z-GASR-CHO: peptide derivate (tetrapeptide GASR, SEQ ID NO:2), inhibitor of MALT1 proteolytic activity ({code Z}-GASR-aldehyde; reading uncertain; also: printed as Z-GASR-CHO) | – | efficiently blocked | completely blocked | – |
| Z-LSSR-CHO: peptide derivate (tetrapeptide LSSR, SEQ ID NO:1), inhibitor of MALT1 proteolytic activity, purchased from Anaspec ({code Z}-LSSR-aldehyde; reading uncertain; also: printed as Z-LSSR-CHO) | – | inhibits MALT1 proteolytic activity; also recorded: efficiently blocked | completely blocked | – |
| A. thaliana serpin (AT1g47710): Arabidopsis thaliana serpin (AT1g47710), indicated as serpin-wt (protein) MDVRESISLQNQVSMNLAKHVITTVSQNSNVIFSPASINVVLSIIAAGSAGATKDQILSFLKFSSTDQLNSFSSEIVSAVLADGSANGGPKLSVANGAWIDKSLSFKPSFKQLLEDSYKAASNQADFQSKAVEVIAEVNSWAEKETNGLITEVLPEGSADSMTKLIFANALYFKGTWNEKFDESLTQEGEFHLLDGNKVTAPFMTSKKKQYVSAYDGFKVLGLPYLQGQDKRQFSMYFYLPDANNGLSDLLDKIVSTPGFLDNHIPRRQVKVREFKIPKFKFSFGFDASNVLKGLGLTSPFSGEEGLTEMVESPEMGKNLCVSNIFHKACIEVNEEGTEAAAASAGVIKLRGLLMEEDEIDFVADHPFLLVVTENITGVVLFIGQVVDPLH | – | – | – | possible, but only at relatively high concentrations |
| IKLA-mutant: mutant serpin in which the reactive center loop has been replaced by the sequence IKLA (SEQ ID NO:16) (protein) MDVRESISLQNQVSMNLAKHVITTVSQNSNVIFSPASINVVLSIIAAGSAGATKDQILSFLKFSSTDQLNSFSSEIVSAVLADGSANGGPKLSVANGAWIDKSLSFKPSFKQLLEDSYKAASNQADFQSKAVEVIAEVNSWAEKETNGLITEVLPEGSADSMTKLIFANALYFKGTWNEKFDESLTQEGEFHLLDGNKVTAPFMTSKKKQYVSAYDGFKVLGLPYLQGQDKRQFSMYFYLPDANNGLSDLLDKIVSTPGFLDNHIPRRQVKVREFKIPKFKFSFGFDASNVLKGLGLTSPFSGEEGLTEMVESPEMGKNLCVSNIFHKACIEVNEEGTEAAAASAGVIKLAGLLMEEDEIDFVADHPFLLVVTENITGVVLFIGQVVDPLH | – | – | – | performing better than wild type serpin at higher concentrations |
